# Results: the DeepSol protein solubility set
# Test: soluble on expression in E. coli; label from the status in PepcDB or PDB records
row,Sequence,soluble on expression in E. coli
1,MSLATPSFGNSSPQLTFTHVANFMNDAAADVSAVDAKQLAQIRQFLKANKTNLIESLNTIRQNVTSSGDHNKLRSTIANLLQINVDNDPFFAQSEDLSHAVEFFMSERSSRLHIVYSLLVNPDIDLETYSFIDNDRFNVVGKLISIISSVIQNYDIITASSLAHDYNNDQDMFTIVSLVQLKKFSDLKFILQILQILNLMILNTKVPVDIVNQWFLQYQNQFVEFCRNINSTDKSIDTSSLQLYKFQNFQDLSYLSETLISRISSLFTITTILILGLNTSIAQFDIQSPLYMDTETFDTVNSALENDVATNIVNEDPIFHPMIHYSWSFILYYRRALQSSESFDDSDITKFALFAESHDVLQKLNTLSEILSFDPVYTTVITVFLEFSLNFIPITASTSRVFAKIISKAPEQFIENFLTNDTFEKKLSIIKAKLPLLNESLIPLINLALIDTEFANFELKDICSFAVTKSSLNDLDYDLIADTITNSSSSSDIIVPDLIELKSDLLVAPPLENENSNCLLSIPKSTKGKILTIKQQQQQQQNGQQPPTTSNLIIFLYKFNGWSLVGRILQNLLHSYMEKGTQLDDLQHELMISIIKLVTNVVDPKTSIEKSSEILSYLSNSLDTSASTINGASIIQVIFEIFEISLQRKDYTSIVQCCEFMTMLTPNYLHLVSSYLNKSDLLDKYGKTGLSNMILGSVELSTGDYTFTIQLLKLTKVFIRESLSLKNIHISKRSKIDIINKLILHAIHIFESYYNWKYNNFLQKFEIAFHLTLIFYDVLHDVFTINPHQKDQLIISSSANKLLQLFLTPMDSIDLAPNTLTNILISPLNTTTKILGDKILGNLYSKVMNNSFKLCTLLISIRGSNRDLKPSNLEKLLFINSSKLVDVYTLPSYVHFKVQIIELLSYLVEAPWNDDYPFLLSFLGEAKSMAFLKEVLSDLSSPVQDWNLLRSLYIFFTTLLESKQDGLSILFLTGQFASNKKINDESSIDKKSSILTVLQKNSLLLDSTPEEVSCKLLETITYVLNTWTNSKIFIKDPKFVNSLLAKLKDSKKLEGHHHHHH,not soluble
2,MSLATTSTEPPTELSGEITMWHSFTQGPRLESIQKSADAFMQKHPKTKIKIETFSWNDFYTKWTTGLANGNVPDISTALPNQVMEMVNSDALVPLNDSIKRIGQDKFNETALNEAKIGDDYYSVPLYSHAQVMWVRTDLLKEHNIEVPKTWDQLYEASKKLKEAGVYGLSVPFGTNDLMATRFLNFYVRSGGGSLLTKDLKADLTSQLAQDGIKYWVKLYKEISPQDSLNFNVLQQATLFYQGKTAFDFNSGFHIGGINANSPQLIDSIDAYPIPKIKESDKDQGIETSNIPMVVWKNSKHPEVAKAFLEALYNEEDYVKFLDSTPVGMLPTIKGISDSAAYKENETRKKFKHAEEVITEAVKKGTAIGYENGPSVQAGMLTNQHIIEQMFQDIITNGTDPMKAAKEAEKQLNDLFEAVQEGHHHHHH,soluble
3,MSLATTTSTDNTGLLDVLAPAYKKDTGVDLKWVAVGTGNALKLGENCDVDVVFVHAPKVELEYVEKGFGIDRTPVMYNDFVIIGNPSFKQKFTGMSVAEAFKLIEKEQVKFVSRGDKSGTHSKEREVWKEALGKIPEKESWYIEAGQGMLATINIAEEQKGLTLTDRGTFIKYESNHKGKPPMVIVLEGDNTLKNFYSIMAVNPKRCEKADYKGAKQFIDWIVSEKMQAEIANFKLLDKQLFTPDAKTREGHHHHHH,soluble
4,MSLAVLAPRVASVGVHSIDHFALEVPDLSAAKVFFGAFGLAVDETIDGLELRASASDHVWARVLKGSRKQLAYLSLNCFGDDLAALTAQVETAGGKPCAAHAGAHDPEGFWFEDPDGNRLQIRTGDKTSPGLKKAAVAAKVRRGLRGAAARHEAPAVHPTRLSHVLLFTPDIERAIQFYRDALGLKFSDGSKGIVAFMHGRHGSDHHLVAFVQSSAKGWHHSAWDVPTVEEVGLGKMQMARAGFVDGWGVGRHVLGSNHFHYVRDPWGSFCEYSADIDFVPPGVEWPSADHPPEDSLYLWGPDVPAYFIENTEAQREGHHHHHH,soluble
5,MSLAVTLKDVAEACGVSYSTVSKALKNSQLVKPNTKQMIQQKALEMNYIPNHSARALVSKKSGTIGLIWPSVDRVAVTHLITEINLAIKSLGYVMFVSIDDVAAASKKFVEFGCDGIIIFDEDETTNLPPEIYNNVPVVAYGVDRDIPYPIVNVNHAEAMIIAIKELLAKGIDRIDYIGDIHTNDARQIAKKDAIANYCEQHHIQYRMIDSSGLNAIEAETSVKHFLQESSLAPGVICGSYDITVGTINAMGSDEQPIIYSYDNIPQIKKIDYPVQAIGVPTAEIAQQVVAILDKVIKGEPIENTYHLHPSLSHNQEGHHHHHH,soluble
6,MSLAVVASAVAGCGQVRVGQVEPAPGSPTRAQVEDMLGRVRVVAERGRPGGYDRDCGRGGGCVFGPAWTDDHGGAEGHNGCDTRNDVLAAQLSDVRYREGTRDCVVVAGTLRDPYTGRLLEFRKADARDVQIDHVYPLAAAWDLGAAGWSPEQRVRFANDTVTNLMATAGAVNQAKGDATPAEWMPPARANHCFYAGKYLTVAVRYDLPVTAADNAVLHAIARTCPEGHHHHHH,soluble
7,MSLAYFGIYDGHGGAEASLYAKEHLMNTIVSQKLFWSENDDDVLKSIREGYIQTHYSMWREQEKWPKTSSGLPSTAGTTASIAFIRRGKIYIGHVGDSGIVLGYQNDKESANDGRWVATPLTEDHKPESYAEKMRIMSCGGKVVTKSGVPRVVWNRPRIGHKGPVRRSTPIDEIPFLAVARSLGDLWSYNSAMDEFVVSPVPDVSVIEIDPKKYRCLIFGSDGLWNVMSPKNAVDIVRNAEMENVRIALEGGNEWKNPSKLLVNEALDRWSRSNMKADNTSVVIIMLDPEGHHHHHH,not soluble
8,MSLDAGRHRVALLVPLTGANAAVGQSIANAATMALLDTNAANMRITTYDTASGAGSAASRAISDGNKLILGPLLGNDVVLVSNVARPAKVPMITYSNDSAVASRDVFVMGQAPGQSVARVLGFAKSKGIGSVAAIIPTGDYGQRAMNAVVDSGRALGVTVTAIETYDRGNTSVASAVRRVKEKGRFDALLIADGSRIALQAAPLAGKGVKLLGTELWSGEAAIAKSPATRGSWFAAVSDGRFGQFEKSYRTRFGATPSRLATLGYDSVLLTLNVARNWKPGTTFPTAKLYDPQGFIGLDGVFRFTASGMAERAMEVREVGAGTFTTVSPAEGHHHHHH,soluble
9,MSLDDESYEEEHKRMVLKIHQEFWDLPTNYQEKPLVFGSQAKNRYKTILPNEHSRVILEPERSPAAGGEPYINANYIKGPDYANNSYIATQGPLPNTIYEFWLMVYQNVVRTATVAGRSCASAGLEQKIVMLTNFVENGRQKCAIYFPQTADEWVAFGSGADIDVGEMLREKDTITASIAAAEQQPEGQEAVGGVCQPVTVRVPCASCFFLVHNVAVEQRNGYTVRTLNVIYGAKVSDADAPDGDGSRALFELTQFRAHHYWFPDWPDHRSPKDINVLLDLSLDVLGSNVVDTPRPESSNSLKGNQPGTPGLEEVMGAAQLAALSSSCTPTVLPIVHSSAGIGRTGCLIAILNGLRQLRLSVMAHQRKQQQLKQSQAQTGEAGQGELHGSEGRRKSTVQMDGATLLAPNAAVGRGGQREGSAVVRESGQVDILGIVCNLRLQRGGMVQNSEQYELIHRALCLYLEKLTQDGQEGHHHHHH,soluble
10,MSLDDSYRIRHIVVKDEEEAREVLKELKGGSSFEAVAAERSTDRYTSPYGGDLGFVTEASDNIPSAYIEEAKTLKEDEWSQEPIKVSNGYAIIQLKEKLKARTFSFDEVKDQIRRQIAMDQLGDKATVKTLWKEADVSWFYGEKSTKEGHHHHHH,soluble
11,MSLDEILKQEMQKELTTRILPYWMERMVDQENGGFYGRITGQEELMPRADKGAILNARILWTYSAAYRLLGREEYKEMANRAKRYLIDHFYDSEFGGVYWSLNYRGEPLDTKKQIYAIGFAIYGLSEFHRATGDPEALMYAVRLFNDIESHSFDGLKNGYCEALTREWNEIADMRLSEKDANERKTMNTHLHILEPYTNLYRVWKDARLERQLYNLIGLFTEKILDKDTSHLQLFFDNDWQSKYPVVSYGHDIEASWLLHEAARVLGDAGLIAEIEPVVKKIAAAASEGLTSDGGMIYEKNLTTGHIDGDYHWWVQAETVVGYYNLFRYFGDRGALQHSIDCWEFIKRHLTDDVHGEWFWSLRADGSLNRDDDKAGFWKCPYHNGRMCIELLGEGHHHHHH,soluble
12,MSLDGSVAAAGLGLGLPTTDSRGHYQLLLSGRALADRYRRIYTTALSDRDQAGSSTGHPASRNKKILNKKKLKRKQKSKSKVKTRSKSENVENTVIIPDIKLHSNPSAFNIYCNVRHCVLEWQKKETSLAAASKNSVQSGESDSDEEEESREPPIKLPKIIEVGLCEVFELIKETRFSHPSLCLRSLQALLNVLQGQQPEGLQSEPPEVLESLFQLLLEITVRSTGMNDSTGQSLTALSCACLFSLVASWGETGRTLQAISAILTNNGSHACQTIQVPTILNSLQRSVQAVLVGKIQVQDWFSNGIKKAALMHKWPLKEVSVDEDDQCLLQNDGFFLYLLCKDGLYKIGSGYSGTVRGHIYNSTSRIRNRKEKKSWLGYAQGYLLYRDLNNHSMTAIRISPETLEQDGTVLLPDCHTEGQNILFTDGEYINQIAASRDDGFVVRIFATSTEPVLQQELQLKLARKCLHACGISLFDLEKDLHIISTGFDEESAILGAGREFALMKTANGKIYYTGKYQSLGIKQGGPSAGKWVELPITKSPKIVHFSVGHDGSHALLVAEDGSVFFTGSASKGEDGESTKSRRQSKPYKPKKIIKMEGKIVVYTACNNGSSSVISKDGELYMFGKDAIYSDSSSLVSDLKGHFVTQVAMGKAHTCVLMKNGEVWTFGVNNKGQCGRDTGAMNQGGKGFGVENMATAMDEDLEEELDEKDEGHHHHHH,not soluble
13,MSLDHPPLCVLLVDDDSLVLDSTTLLLEDLGHRVIRAASGAQALQCLEQHRDIQLMISDMAMPHMDGRQLAEAVRRLHPQLPIILASGYAQRQDGPVPELPRIFKPFSQAQLRDALAQVLAQSAEGHHHHHH,soluble
14,MSLDIEEARTTGIIDDKEAESRSESLEKAYLKTPLDPWKGEICTVSLSAAAHESRVVPISHKVGQVFEPSMDRDEARKLVLDLLDEYLFKNEKVLKIAVNLSFETKYAAKYGKYILGKVADPLIMWVRCLQIAAPQKINNPKKPTSGWGLKPATKHIFGVTMNDFSALLKKYKVNFFDEIDASKGEGLLYSAEDSDYAVQHYEYWSQIAAQISRYEEWLHKIEMPFTRVIGLMEYWGMNWDPNLATQKKQEAEIMQEQAAERIKQIAKETFNIDINTGKSGKTNEVKSLMFDYLKIPIAKYGKTGASLDQEALIDMAFMLENKLNDIDEEKYLGVSLPENWENIDPEKDPTLDKLERGAIRIAKREPHPYKEQALEVIDQLKKIQKYTTLLSSHIIGREKYLNFMSGRIHAGYSPFTETGRLNSFNPNGQNVPRPDNDEFKIRNFFVPKPGKILFFIDFSGFELRLMAWKSGDEVMTELFNTGGDMHRRTASVMTGKSEAEIVKKERTDAKAGNFGISYGGTEHALQFTFKTKYMIRKTLDECAQIVNAVKTAYKRIPEYQRKIVLEAREQGYVQTIYGYMRLLPGINSANRRDRGSAERQAANTPVQGSAADIMKKVQNEIYESIGKQEGVLSHGSADMIAQIHDEIIFEIDDDPEIVVAVEKQIKQVMEQPPVPGFPVPIEAEGSVGYRWGEKMSVESWLKQREGHHHHHH,soluble
15,MSLDIMITHKKIYSSLLNTKSRLNFKDTVQSGQSFRWNLNETLKSYYSSVIYNSIIFICEINSEMIEVLCTDQELSGKPINEFLKHLFSLDFQEETVFSSRFQQEFPEVWNLVQSYRSVRVMRQDPFEIMVTFMCAQGIGMHLIRRQVSMIAERYGQKIMLELPEGNLTFHSFPPPQALASADPNELAVCTNNNRIRAANIIAMARSFESGKLALACVDSGKCDLETLRETLCVHSGIGLKIADCIALFGLGRFDAFPIDTHVKQYLWEWFGIEEARHSLTEKNYRILQEKARAILGAEYAGYAGHILFHCWRKEVKKMKAEGHHHHHH,soluble
